Test results as given in publication PMC5125079 (Mycopathologia, 2011).

Experiments:
[1] = target: the molecule itself; assay: SDS-PAGE with tryptic digestion and mass spectrometry of the bands
[2] = target: the molecule itself; assay: SDS-PAGE and Western blot

B1: Cryptococcus neoformans recombinant antiphagocytic protein 1 (rApp1) (natural protein)
chain: MMSSATAELCFDCANCVEMLPKGTTKSVTRPEILERLTRIENHIEVQTALLSTMAASKDYKKKVYTDDDDELEEPEVQLCNMTCEMAALKTYKPQTKVSNHKIVIEAALGRLDHVNGESSIRWAQSVILGLQAAETLQNDKQMMELARVIGCLEACELRWAGDWRAGVASITLKELRTLMI
In the case of B1, the “stoichiometry N” value [1] is reported as 2.

B2: App1 in total protein from C. neoformans WT (H99) (natural protein)
chain: B1 chain
B2 was tested, and the “stoichiometry N” value [2] was 2.
